From the domain aggregation screens of Martell et al. (2025) come the findings set out here.
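Also: 20 min heating vs room temperature control held 20 min.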

The nature of the data set: soluble fraction after stress (log2 fold change); higher = more stays soluble; pooled small domains, quantitative proteomics. The note with it: stress: 75 degC.
On to “HMNSHKIIDRLNQMITEKDLSEEMPAITEAFKNNERSAEDLKKYVAENLSKKLNAEEREKFVSLILQYRN”, for which the “soluble fraction (log2)” value is -0.0788. In the case of “HMNSILFAITKEGGVVYGGKPVGVNGVRPLVRRLLQSEEMPVILQVDEKADAGLVIRVIDESKLGGASKV” it was -0.372; in that of “HMNSIQEQIEKYVYSLAPVTIERYESLKNGDIEDIEFEKLRKSISSKIINEKIDNKKQVAILSHLKKMYSD”, -0.159.

For the sequence “HMNSKIIVESIIKSKNGIAKVADLVEGGVSRQSIKKMYADGYIKRISRGYYTLTSEPVSSDEQVISS”, the “soluble fraction (log2)” value is -0.645. For “HMNSKMTYSELITSMENKEVESVKISSSGDVASVKLKNSKTEKEVKIPSLDSFMTYTEQYLKTGEITLEE” the value was 0.0529. For “HMNSKMTYSELVTNITNKEVESIKISSTGSTASVKLKNSKSEKEVNIPSLDSFMSYTEEYLKTGDFTLDEE” the value was 0.586. For “HMNSLKNKNNLIALVGASNDKNKYGNKILLDLVSKGHNVVPINPKEDTVAGLKSYNNVSELSEKPSI” the value was -0.523. On to “HMNSLPFSNFMNEVEAGRVVEVKIQGNNISGVLANGKTFSTYSPNYPELVEKLSSNGVSIVATPQ”, for which the “soluble fraction (log2)” value stood at 0.28. For “HMNSRTLAYSDFIRKVDKGEVSAVVIDGEQVQVQTKDGQTFVTIQPQSEQMNDKLVEQLIAKDISVKAERQ” the value was -0.0843. For the sequence “HMNSSLFLARQVHALRKKAGLTLQQLSRKSDVSVSTLSKIEKGQLSPTYEKIVSLARGLDVPIAALFHE”, the “soluble fraction (log2)” value is -2.45.

As for “HMNSSTVDLAKEFLIDLLSSVEKMPASEVQEEAKNAGYSVASIRRAKDNLNIKPFKDGSAWYWKLPSIFK”, the “soluble fraction (log2)” value is -0.329. In the case of “HMNSSTYIVTFKVDGEEDIVETYQWGDRIIVPEVEAKDDYVFIGWDAQIPEFMPERNLEFTAI” it was -0.895; in that of “HMNSTNYQVIITANGGLNIRAGASTAYARIGGYAKGTVVTILAESNGFGKTDKGWISLNYTSKDLD”, -3.11; in that of “HMNTAALSLQRRNEIKKWLLEEKTLTVAALSNRFNVTYETIRRDLEILEKEGFLKKVYGGAALNERV”, -2.83. In the case of “HMNTAIDGLIEKVGMFAMEKKAISVDQVKENFSINGEQAESVIKQLETIGVLGKKNEDGTHTVM” it was 0.159; in that of “HMNTDALIGKTGYVTEIVGERHGRIQFSGGEWSARTEGVSIPVGAEVRVDRIDGATAVVSAV”, 0.114. For “HMNTDVEKQKVFTALFDDYFRRNSMTSLEKQLFLTALKTNFQNAQKTVAKDHPYYATYSLIISAIENYR” the value was -0.525. For the sequence “HMNTEEKILEKEFLMLYSELGLQPKNIYELMENTGLKYEKLVEMLLQLQLKGLVEQPSYNYYSRL”, the “soluble fraction (log2)” value is -1.28. In the case of “HMNTEEVGSYLKKLRLEHSFTQKELAGKLYITHQAVSNWEKGKALPDIGILSQLGDIYGISIDNLLLK” it was -2.04; in that of “HMNTEKRVFAGVENTRLDHFLVEQFPEFSRTFIQQMIKSANVIVNGNIEKASYKLREGDTIMTRPM”, -0.489. In the case of “HMNTELFTKNLFNKLEVLLGEKNWKSKTAQLLNISSDAFYKKIRNESQLNLHELLLIKDTFKISIDALLDE” it was -1.35. For “HMNTETAVTKAIDQIQVMMDLRNRSVSFTRDQETGTDIIKVIDDNTGDTIRQMPSEELLTFMKNLTQ”, the “soluble fraction (log2)” value is 0.165. In the case of “HMNTFKNIFIQEGDLFNLKKNDNQIIFAKEGILINENKKIFRLLNGKIISTNNNRLIGFEFDKIDYNLSN” it was 0.561; in that of “HMNTGIPHQEVIKKLYSFAEGGDWKGLKEELNRIKEYTLFYNSVKELADSFEINRLIEKLKTYIF”, -0.127; in that of “HMNTGLSEREHEIAQLVLQGRTYAEIGAELFISPRTAEHHIGQIRRRLAATSRSDLLAKLRVAMNTTEGAG”, -2.36. In the case of “HMNTISYTELIKQIDEGNVEKVEMTVGSTSVKVKLQGQEEEKKAIVPNTQAFVELIQEKTLEGNQIDLKQN” it was 0.0122. For “HMNTLSPVRILAILDGRSSMAEWQLAEELGVSIDNLSEILNKMSTDGQIRLVPSEDGRMVVP” the value was 0.597. For the sequence “HMNTPALRQRTQDVPALLIHFAKYFATKGQTPISFAPDFLEALKDYPWPGNVRELRNLVESMVV”, the “soluble fraction (log2)” value was -0.133. Regarding “HMNTPHLTPREREVLKGIVDGLINKEIAARMGVSVATVITHRNNLTEKLGTRSVSALTIFAVMHGIVR”, the “soluble fraction (log2)” value was -2.55. In the case of “HMNTPNYDVLYRGLADADAGQIMEALQKSNIPFKVDSHSGVLLVPADQVHEARLKLASQGLPRG” it was -0.119. For “HMNTPTLLLYGGKDHSVPEAGIRHLRAHLSANDRGEYRFYPNAPHLLLQSRQWQQVSQDISQWLAMT” the value was 0.037.

With “HMNTRWDDAAQTWLRKVIEQQPVLVQISAAKRLRDQAEQRAREAGEEVVTEQHVKRAGLELGFGEP”, the “soluble fraction (log2)” value came out at 0.0588.

Regarding “HMNTSITVPSLKGLSQEAATLKMERLGLHVEVSDTGFVRSLAFGTVLQQSIAPGEKVKPGRLVYITINSD”, the “soluble fraction (log2)” value is -2.2.

Turning to “HMNTVAGAISDLSFKVRGSEDIEKLNRLKALSIQAKLDVQGQEEAERLISELEAKYGSLGMTVDKVSGKIA”, the “soluble fraction (log2)” value is 0.0323.

As for “HMNTYEIIGGDNRARGPVTGEELSQWIREGRASGHTMARVSDGEHWQPLGSFPEFVGPLQGLPW”, the “soluble fraction (log2)” value was 0.0698. In the case of “HMNTYVLPDALKSQLSVEDTGMLTKQLQALPETLAEGVLDSLSQMLSKNTLQNPVGWMLAVMKRAREGNFN”, the “soluble fraction (log2)” value is -0.305. For “HMNVAVSEADAKAAALERVSGATEADIRMELELDDGYYVYEGDIIYQQKEYEFEIDAQTGKFLKWSEER” the value was -0.121; for “HMNVDLLEARIPIQSHGMRLDQVVAELFPDYSRNRLAAWIKEGRLTVDGKTMKPRDRALASAHVVLEVV”, -0.3. For “HMNVGKYILTLAAKEGYSQSDVARRTGISRQMLSYIIAGERKLTLPQALKIESLLSLKTGTLILMQDED” the value was -3.35; for “HMNVNEIREMYPEGTQIVLTEMRGENQMPYGLKGTVKFVDDAGQIHMKWENGSSLALNINEDTFEKVE”, 0.91.

Regarding “HMNVPATAEAYEALLADAESVGKSLWGHEAKRFAAEQALLSAGLREVIQVDPDKARELALRLRGLLDEYRG”, the “soluble fraction (log2)” value amounted to 0.19.

Consider “HMNVQGFVFDLAEPLDKVPSIEGFPLKLEDPLTLVAAVNKDRSINALFAELSKLNIKIKSMRNE”, for which the “soluble fraction (log2)” value was -0.0601. For “HMNVVSIEHIRTHLQNHLSLIGRSIEESFNEAKVIAFVASLFLTHRGYASVSQDMGTNGEIYLQDLW” the value was -0.465; for “HMNVWGLSERELEATRLLIEGFSSKEASARMGISPSTVRSLWGRARAKMGVDSIEDARELVA”, -0.415; for “HMNYAVTAARRESILNAALEIFGKSGYNGSSVKQVALAVGMTEAGVLHHFGTKSNLLIEVLRV”, 0.396. For “HMNYLDVNIPVTSAVWMGKQLPEMGTLIYLTPDKDVEGMLFIKQATKDKPDGEYIEAKVLGYKEGRVLFDF” the value was -0.964; for “HMPAEEVPLYKAVVVTTPPNRLRVRFSPAGDFKRWLQSGEEVDVYQELGDWRRIEPNGWSSAEWLQRVG”, -0.465.

For the sequence “HMPAGWIPARIRLADYPQLRSLAWHVQGIDTLTPTEALDIYERNARHLDAQAMSAQEQDLLASLRLALS”, the “soluble fraction (log2)” value was -0.888. For “HMPALPGNELLRNLMLEHGLKQVDLAEIGSQGVVSEILSGKRRINRRHADLLARRFSLPAELFSR” the value was -0.217; for “HMPANLTPDYFKAEQWYRSASTNEEKMLALEQMLAVMPKHKGTEHLQADLKRKLSQLKDASAQ”, 0.19; for “HMPAPAPDIPYHSRVSVRRADGFYEGTWTNTAPILDYTGRWMVNVSLGGKRVFVPVEEVVVH”, -1.05.

As to “HMPAPKPSGALSLKDEPLYAASDSKRRSGTVSGTYYRWDGENVNGRMRITNKQENIGKAGQVTGWITAH”, the “soluble fraction (log2)” value was found to be 0.0409. For “HMPASTSIPYSDFISRVESGDVQEAKIGESAITGTYKDGSQFKTVKPPTLDTNLMPTLIQNKVNVVGVEP” the value was 0.176; for “HMPAVGGVVKGAVVSVGRNEVRLDIGGLAIGIIRGPELDKHVDLRIGDEVEATVITLDNEFGELELSL”, -1.37; for “HMPAVTEQTKTNLRRAFWQLYEQKPIQKITVKQITDLAGYNRGTFYLYFKDVYDLLDDIENK”, -1.09. In the case of “HMPAVTEQTRANLRTAFWSLYREKPTSKITVREITDRAGYNRATFYLYYRDVYDLFEQIEQEIL” it was -2.37. Turning to “HMPDAGQRRYLELVTALAGARSLTIDDLERRAIRFAEWGNGYSGRTARQFIDTLLQDRGVAEEL”, the “soluble fraction (log2)” value was -0.731.

As for “HMPDAIPLETIIKNVNVLAGFLINSKTFTEDDIVMAYNNIMKIKGDHTDEKTLTNDVYTLLTEMN”, the “soluble fraction (log2)” value is -0.714. For “HMPDIFDRGTAHITDAASGVAITFTRTFRIPPEVTMTHKGGTVVAIARLVGSITTGGFTAVLENT” the value was 0.0362.

As for “HMPDLQDTLYRLVPEDGSAIGNQSLREKFLSTAKDASDADFEAARDGLVEQGKLTKGKGRGGSVRRAEP”, the “soluble fraction (log2)” value came to 0.551. For “HMPDLSMLDEVLDEYRSQAGSLVTVLQKAQDLYGYLPLTILRHIAEEMNIKPAQVYGVATFYTQFRL” the value was 0.0378; for “HMPDRQKDIQNWQQIAETLLNMLDKYVAALETGKTGLAEAYKAIFAETLRRLDDRLDPEQFLP”, -1.91; for “HMPDTETLTPRQRQILDLVQELGFTTIETLAERFGVSAQTVRREIIRLQAGNFLQRFHGGAGLASGGIRSA”, -1.24. As to “HMPDYAFEGVVIKLTHRDYDRWKAGFPDVDLPPYLTARDAWLSEQTPADRKNWFVSTATDLRNFQKREAI”, the “soluble fraction (log2)” value is -1.26. For “HMPEDQISYTDLIKQINDGNVEKIKMTVGSTTIKVNLKEQEEPKTAIVPSTQAFIELVQEKVQDGNEITLI” the value was 0.164; for “HMPEITPAMIKALLSSLSEELAFASVTKVYAVLHNLFKAALLDDTIDRNPMDKVPRPRKSKDAAL”, -0.576; for “HMPELPEVETSRRGIEPHLVGATILHAVVRNGRLRWPVSEEIYRLSDQPVLSVQRRAKYLLLELQA”, 0.0647. Consider “HMPELSPEERAIIETLQKNNDLQVNIIAIKTGMDMGSLSAVLFDLEMKGLVKLLAGGMYHLI”, for which the “soluble fraction (log2)” value was -0.66. For “HMPEPAPALPAKTRVSIRRETGGIIWHEGAWTISPPIRAYDGRWYVAVTTARKGIEFVPVSSVIRS” the value was -2.18; for “HMPEPMKLSDLPPELWQRVSDLFDEVIDLPETDRIPYIRNLWGSEPLVAKELMALLVAAANVD”, -0.452.
